Starred links: 1 amine or outer side, 2 acyl side, 3 side chain; linkers in the order of their positions; H or OH if unused. Positions of bridges follow the written chain, without caps; N, C: chain ends. Non-standard residues stand in square brackets, D forms with d. Primed or numbered codes have the meaning given here. PyrS2″ = (S)-3-amino-1-((pent-4-en-1-yloxy)carbonyl)pyrrolidine-3-carboxylic acid (stapling residue), C=CCCCOC(=O)N1CC[C@@](N[*:1])(C(=O)[*:2])C1; B5(4) = 2,2-bis(4-pentenyl)glycine = 2-amino-2-(pent-4-en-1-yl)hept-6-enoic acid (stitching residue), C=CCCCC(CCCC=C)(N[*:1])C(=O)[*:2]; B5(5) = 2,2-bis(4-pentenyl)glycine, 2-amino-2-(pent-4-en-1-yl)hept-6-enoic acid (stitching residue), C=CCCCC(CCCC=C)(N[*:1])C(=O)[*:2]; TfeGA = (S)-2-amino-3-((carboxymethyl)(2,2,2-trifluoroethyl)amino)propanoic acid, O=C([C@H](CN(CC(=O)[*:3])CC(F)(F)F)N[*:1])[*:2]; PyrS2 = (S)-3-amino-1-((pent-4-en-1-yloxy)carbonyl)pyrrolidine-3-carboxylic acid, C=CCCCOC(=O)N1CC[C@@](N[*:1])(C(=O)[*:2])C1; SPip2 = 4-amino-1-((pent-4-en-1-yloxy)carbonyl)piperidine-4-carboxylic acid, C=CCCCOC(=O)N1CCC(N[*:1])(C(=O)[*:2])CC1; B5(12) = 2-amino-2-(pent-4-en-1-yl)hept-6-enoic acid (two olefin side chains), C=CCCCC(CCCC=C)(N[*:1])C(=O)[*:2]; B5(25) = 2-amino-2-(pent-4-en-1-yl)hept-6-enoic acid (stitching residue), C=CCCCC(CCCC=C)(N[*:1])C(=O)[*:2]; EtGA = (S)-2-amino-3-((carboxymethyl)(ethyl)amino)propanoic acid, CCN(CC(=O)[*:3])C[C@H](N[*:1])C(=O)[*:2]; 2COOHF = (S)-2-(2-amino-2-carboxyethyl)benzoic acid, O=C([C@H](Cc1ccccc1C(=O)[*:3])N[*:1])[*:2]; B5(3) = 2,2-bis(4-pentenyl)glycine (stitching residue), C=CCCCC(CCCC=C)(N[*:1])C(=O)[*:2]; B5 = 2-amino-2-(pent-4-en-1-yl)hept-6-enoic acid, C=CCCCC(CCCC=C)(N[*:1])C(=O)[*:2]; Phe(3-COOH) = N[C@@H](Cc1cccc(C(=O)O)c1)C(=O)O; 2F3MeF = Cc1cccc(C[C@H](N[*:1])C(=O)[*:2])c1F; Phe(2-CF3) = N[C@@H](Cc1ccccc1C(F)(F)F)C(=O)O; Bta = N[C@@H](Cc1csc2ccccc12)C(=O)O; Lys(iPr) = CC(C)NCCCC[C@H](N)C(=O)O; αAllylPro = C=CC[C@@]1(C(=O)O)CCCN1; tBuAla = CC(C)(C)C[C@H](N)C(=O)O; 3Thi = N[C@@H](Cc1ccsc1)C(=O)O; Aad = N[C@@H](CCCC(=O)O)C(=O)O; Cha = N[C@@H](CC1CCCCC1)C(=O)O; Cit = NC(=O)NCCC[C@H](N)C(=O)O; S8 = C=CCCCCCC[C@](C)(N)C(=O)O; Aib = CC(C)(N)C(=O)O

In patent US20240116985A1, “STAPLED PEPTIDES AND METHODS THEREOF” (priority 2020, published 2024) one finds IC50, EC50 and DLD1 4% Abs IC50 data, which are given here for 20 molecules.

In assay [1] the target is full-length beta-Catenin (Uniprot ID P35222) (Homo sapiens (Human)) (UniProt P35222). Kind of assay: fluorescence polarization competition; full-length beta-catenin, 5FAM-TCF4 10-53 probe as competitor.
Target sequence in this assay (P35222 whole entry, one chain of several): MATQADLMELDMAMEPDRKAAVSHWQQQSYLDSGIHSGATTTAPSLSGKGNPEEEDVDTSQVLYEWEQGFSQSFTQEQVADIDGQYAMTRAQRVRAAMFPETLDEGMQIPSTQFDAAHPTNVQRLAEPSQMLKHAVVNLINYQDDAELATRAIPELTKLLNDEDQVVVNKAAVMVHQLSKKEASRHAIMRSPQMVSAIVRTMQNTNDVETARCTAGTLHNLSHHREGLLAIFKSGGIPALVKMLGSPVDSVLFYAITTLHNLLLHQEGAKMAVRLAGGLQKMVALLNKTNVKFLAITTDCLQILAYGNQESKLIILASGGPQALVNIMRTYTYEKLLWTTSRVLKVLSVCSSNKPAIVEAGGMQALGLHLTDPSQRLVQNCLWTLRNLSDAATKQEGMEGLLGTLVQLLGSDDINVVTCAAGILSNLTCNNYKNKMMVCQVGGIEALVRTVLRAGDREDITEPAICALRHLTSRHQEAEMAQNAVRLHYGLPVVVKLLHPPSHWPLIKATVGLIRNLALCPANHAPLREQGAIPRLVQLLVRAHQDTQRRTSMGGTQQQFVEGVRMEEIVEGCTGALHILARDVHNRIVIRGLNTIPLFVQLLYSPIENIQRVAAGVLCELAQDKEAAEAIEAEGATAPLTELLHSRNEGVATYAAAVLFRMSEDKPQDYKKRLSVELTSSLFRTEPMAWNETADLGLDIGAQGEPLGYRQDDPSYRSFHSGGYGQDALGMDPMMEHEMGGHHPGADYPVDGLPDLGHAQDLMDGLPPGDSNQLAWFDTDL
Assay [2] addresses Bcat-Halo (UniProt P35222). As to the kind of experiment: NanoBRET Abs IC50; B-cat-Halo / TCF4-Luc engagement in HEK293 cells.
Assay [3] deals with full-length beta-Catenin (Uniprot ID P35222) (Homo sapiens (Human)) (UniProt P35222). As to the kind of experiment: fluorescence polarization competition; full-length beta-catenin with 5FAM-TCF4(10-53) probe as competitor.
Target sequence in this assay (P35222 whole entry, one chain of several): as above
Assay [4] shares this target. As to the kind of experiment: fluorescence polarization competition; full-length beta-catenin, 5FAM-TCF4 10-53 probe.
Target sequence in this assay (P35222 whole entry, one chain of several): as above
The target is the same in assay [5]. Kind of assay: fluorescence polarization competition; peptide titrated against 10 nM full-length beta-catenin + 10 nM 5FAM-TCF4(10-53) probe.
Target sequence in this assay (P35222 whole entry, one chain of several): as above
The target is the same in assay [6]. As to the kind of experiment: FP competition vs 5FAM-TCF4(10-53), full-length beta-catenin.
Target sequence in this assay (P35222 2-781 limits assumed): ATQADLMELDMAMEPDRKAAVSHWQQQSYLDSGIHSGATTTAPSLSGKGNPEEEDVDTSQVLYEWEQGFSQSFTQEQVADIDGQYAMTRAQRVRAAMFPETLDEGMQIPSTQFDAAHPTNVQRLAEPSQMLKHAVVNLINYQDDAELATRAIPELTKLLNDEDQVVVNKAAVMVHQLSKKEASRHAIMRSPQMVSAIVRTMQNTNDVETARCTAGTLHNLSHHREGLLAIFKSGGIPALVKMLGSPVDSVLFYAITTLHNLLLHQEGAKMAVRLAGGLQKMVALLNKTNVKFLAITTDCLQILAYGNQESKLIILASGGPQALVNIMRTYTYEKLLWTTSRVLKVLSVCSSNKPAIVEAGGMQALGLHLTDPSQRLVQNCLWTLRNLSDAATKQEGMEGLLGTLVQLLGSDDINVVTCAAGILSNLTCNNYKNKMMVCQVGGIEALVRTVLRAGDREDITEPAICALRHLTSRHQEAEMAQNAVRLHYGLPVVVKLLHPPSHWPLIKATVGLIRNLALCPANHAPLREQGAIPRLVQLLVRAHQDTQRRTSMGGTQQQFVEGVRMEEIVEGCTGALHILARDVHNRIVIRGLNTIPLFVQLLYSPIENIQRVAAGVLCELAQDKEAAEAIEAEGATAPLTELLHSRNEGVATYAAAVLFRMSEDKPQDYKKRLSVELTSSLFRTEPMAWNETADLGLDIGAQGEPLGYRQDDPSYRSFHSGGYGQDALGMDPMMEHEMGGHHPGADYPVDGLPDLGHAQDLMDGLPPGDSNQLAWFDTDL
For assay [7] the target is unchanged. As to the kind of experiment: fluorescence polarization competition; 10 nM full-length beta-catenin with 10 nM 5FAM-TCF4 (residues 10-53) probe as competitor.
Target sequence in this assay (P35222 2-781 limits assumed): as above
Assay [8] deals with Bcat-Halo (UniProt P35222). Kind of assay: NanoBRET Abs IC50, HEK293 cells, B-cat-Halo/TCF4-Luc; competitor TCF4-Luc.
Chain of Bcat-Halo (P35222 whole entry): as the sequence (P35222 whole entry, one chain of several) above
Assay [9] deals with Bcat-Halo (beta-catenin HaloTag construct expressed in HEK293 cells) (UniProt P35222). Kind of assay: NanoBRET Abs IC50 in HEK293 cells; Bcat-Halo with TCF4-Luc as competitor.
Chain of Bcat-Halo (beta-catenin HaloTag construct expressed in HEK293 cells) (P35222 whole entry): as the sequence (P35222 whole entry, one chain of several) above
Assay [10] deals with full-length beta-Catenin (Uniprot ID P35222) (Homo sapiens (Human)) (UniProt P35222). As to the kind of experiment: fluorescence polarization competition; displacement of 5FAM-TCF4(10-53) from full-length beta-catenin.
Target sequence in this assay (P35222 whole entry, one chain of several): as above
For assay [11] the target is unchanged. Kind of assay: fluorescence polarization competition; full-length beta-catenin, competitor 5FAM-TCF4(10-53) probe.
Target sequence in this assay (P35222 whole entry, one chain of several): as above
The target is the same in assay [12]. Kind of assay: cell-based or functional assay.
For assay [13], the target named is Bcat-Halo (UniProt P35222). Kind of assay: NanoBRET in HEK293 cells, Bcat-Halo / TCF4-Luc; absolute IC50.
For assay [14], the target named is full-length beta-Catenin (Uniprot ID P35222) (Homo sapiens (Human)) (UniProt P35222). As to the kind of experiment: fluorescence polarization competition; 10 nM full-length beta-catenin, 10 nM 5FAM-TCF4(10-53) probe.
Target sequence in this assay (P35222 2-781 limits assumed): as the sequence (P35222 2-781 limits assumed) above

B1: I-2592 (peptide)
peptide: Ac-[αAllylPro]D[tBuAla][B5]D[Phe(3-COOH)]QAFL[SPip2][3Thi][Bta]A-NH2
modifications: staple 1-4; staple 4-11 (inferred); also: earlier-eluting HPLC staple isomer composition
Turning to B1, the figures for the IC50 (in assay [1]; in the assay with Bcat-Halo [2]) were 37 nM and > 20000 nM, respectively.
In the case of Ac-[αAllylPro]DI[B5]D[TfeGA]AAFQ[S8]F[Bta]Q-NH2 (staple 1-4, 4-11; also: later-eluting staple isomer) [I-611], the IC50 in assay [3] and in assay [4] was 55 nM throughout. The EC50 in assay [5] amounted to 55 nM.
Turning to Ac-[αAllylPro]D[tBuAla][B5(12)]DQAAFN[PyrS2][3Thi][Bta]-NH2 (staple 1-4, 4-11) [I-858], the results for the IC50 (in [6]; in the assay with Bcat-Halo [8]) were 34 nM and > 20000 nM, respectively. In addition, in assay [7], the EC50 is 34 nM.

B2: I-2593 (peptide)
peptide: Ac-[αAllylPro]D[tBuAla][B5]D[Phe(3-COOH)]QAFL[SPip2][3Thi][Bta]A-NH2
modifications: staple 1-4; staple 4-11 (inferred); also: later-eluting HPLC staple isomer composition
For B2, the figures for the 50% inhibitory concentration (IC50) (in [1]; with Bcat-Halo [2]) were 27 nM and 29400 nM, respectively.
In the case of Ac-[αAllylPro]D[tBuAla][B5(4)]D[Cit]AAFN[PyrS2″][3Thi][Bta]H-NH2 (staple 1-4, 4-11) [I-841], the half-inhibitory concentration (IC50) in assay [9] was 34400 nM; in assay [10], 12 nM. The molecule further registered an EC50 in [7] of 12 nM.

B3: I-608 (peptide)
peptide: Ac-[αAllylPro]DI[B5(5)]D[EtGA]AAFQ[S8]F[Bta]Q-NH2
modifications: staple 1-4, 4-11; not fully specified; printed as Ac-PL3-Asp-Ile-B5-Asp-EtGa-Ala-Ala-Phe-Gln-S8-Phe-BztA-Gln-NH2
As to B3, the IC50 in assay [3] and in [4] was 211 nM each time. Also, in [11], the EC50 came to 211 nM.
Take Ac-[αAllylPro]DI[B5(5)]D[EtGA]AAFQ[S8]F[Bta]Q-NH2 (staple 1-4, 4-11; also: staple isomer 2) [I-609]: the 50% inhibitory concentration (IC50) in assay [3] and in [4] was 80 nM each time. Further, the EC50 in [11] was found to be 80 nM.

B4: I-2578 (peptide)
peptide: Ac-[αAllylPro]D[tBuAla][B5]D[Phe(3-COOH)][Aib]AFK(Ac)[PyrS2][3Thi][Bta]AA-NH2
modifications: staple 1-4, 4-11; not fully specified; printed as Ac-PL3-Asp-Npg-B5-Asp-3COOHF-Aib-Ala-Phe-AcLys-PyrS2-3Thi-BztA-Ala-Ala-NH2
B4: the IC50 in assay [1] amounted to 5 nM; with Bcat-Halo [2], 5500 nM. Moreover, the DLD1 4% Abs IC50 in assay [12] came out at 4100 nM.
Consider Ac-[αAllylPro]D[tBuAla][B5(12)]DHAAFN[PyrS2][3Thi][Bta]-NH2 (staple 1-4, 4-11) [I-863], for which the values for the concentration for half-maximal inhibition (IC50) (in [6]; in the assay with Bcat-Halo [8]) were 22 nM and > 20000 nM, respectively. For the same molecule, in [7], the EC50 amounted to 22 nM.

B5: I-2577 (peptide)
peptide: Ac-[αAllylPro]D[tBuAla][B5(25)]D[Phe(3-COOH)][Aib]AFS[PyrS2″][3Thi][Bta]SA-NH2
modifications: staple 1-4, 4-11 (inferred); not fully specified; printed as Ac-PL3-Asp-Npg-B5-Asp-3COOHF-Aib-Ala-Phe-Ser-PyrS2-3Thi-BztA-Ser-Ala-NH2
Regarding B5, the values for the IC50 (in [1]; in the assay with Bcat-Halo [2]) were 7 nM and 2700 nM, respectively.
Turning to Ac-[αAllylPro]D[tBuAla][B5(4)]DNAAFN[PyrS2″][3Thi][Bta]H-NH2 (staple 1-4, 4-11) [I-837], the IC50 in assay [9] is 23800 nM; in [10] it was 5 nM. Further, in assay [7], the EC50 was 5 nM.
As for Ac-[αAllylPro]DI[B5]D[TfeGA]AAFQ[S8]F[Bta]Q-NH2 (staple 1-4, 4-11; not fully specified) [I-610], the IC50 in assay [3] and in assay [4] was 54 nM each time. The same molecule yielded an EC50 in assay [11] of 54 nM.
Turning to Ac-[αAllylPro]D[tBuAla][B5(5)]D[2COOHF]AAFF[PyrS2″][2F3MeF][Bta]Q-NH2 (staple 1-4, 4-11) [I-1655], the IC50 amounted to 12700 nM with Bcat-Halo [13] and 48 nM in [14].
Regarding Ac-[αAllylPro]D[tBuAla][B5(4)]DYAAFN[PyrS2″][3Thi][Bta]Q-NH2 (staple 1-4, 4-11) [I-842], the IC50 was found to be 47900 nM in assay [9] and 34 nM in [10]. For the same molecule, the EC50 in [7] amounted to 34 nM.
Take Ac-[αAllylPro]D[tBuAla][B5(4)]DQAAFN[PyrS2″][3Thi][Bta]H-NH2 (staple 1-4, 4-11) [I-839]: the values for the IC50 in assay [9] and in assay [10] were 41900 nM and 7 nM, respectively. Further, the EC50 in assay [7] is 7 nM.
In the case of Ac-[αAllylPro]D[tBuAla][B5(12)]DTAAFN[PyrS2][3Thi][Bta]-NH2 (staple 1-4, 4-11; also: earlier eluting HPLC peak (staple isomer)) [I-859], the IC50 in assay [6] is 36 nM; with Bcat-Halo [8] it was > 20000 nM. Also, in [7], the EC50 came out at 36 nM.
As for Ac-[αAllylPro]D[tBuAla][B5(4)]DQAAFN[PyrS2″][3Thi][Bta]Q-NH2 (staple 1-4, 4-11) [I-838], the IC50 is 17400 nM in assay [9] and 12 nM in assay [10]. Also, the EC50 in [7] was 12 nM.
In the case of Ac-[αAllylPro]N[Cha][B5(4)]DQ[Lys(iPr)]AFL[PyrS2]F[Bta]Q-NH2 (staple 1-4, 4-11) [I-1648], the IC50 is > 20000 nM with Bcat-Halo [13] and 191 nM in [14].
Ac-[αAllylPro]DI[B5]D[Aad]AAFQ[S8]F[Bta]Q-NH2 (staple 1-4, 4-11) [I-612]: the IC50 in assay [3] and in [4] was 64 nM each time. The EC50 in assay [5] stood at 64 nM.

B6: I-2579 (peptide)
peptide: Ac-[αAllylPro]D[tBuAla][B5]D[Phe(3-COOH)][Aib]AFK(Ac)[PyrS2][Phe(2-CF3)][Bta]AA-NH2
modifications: staple 1-4, 4-11; not fully specified; printed as Ac-PL3-Asp-Npg-B5-Asp-3COOHF-Aib-Ala-Phe-AcLys-PyrS2-2F3MeF-BztA-Ala-Ala-NH2
In the case of B6, the IC50 in assay [1] amounted to 41 nM; with Bcat-Halo [2], 4700 nM.
